Test results taken from patent US20160017295A1.

Tests used:
Test in all cases: cell-based or functional assay
[1] = target: SM 10-2 variant AAV capsid (Adeno-associated virus 2 (isolate Srivastava/1982) (AAV-2)) (UniProt P03135)
[2] = target: SM 10-8 variant AAV capsid (Adeno-associated virus 2 (isolate Srivastava/1982) (AAV-2)) (UniProt P03135)
[3] = target: SM 100-10 variant AAV capsid (Adeno-associated virus 2 (isolate Srivastava/1982) (AAV-2)) (UniProt P03135)
[4] = target: SM 100-3 variant AAV capsid (Adeno-associated virus 2 (isolate Srivastava/1982) (AAV-2)) (UniProt P03135)
[5] = target: Variant 1.45 (AAV2 capsid with N312K, N449D) (AAV2 (adeno-associated virus type 2)) (UniProt P03135)
[6] = target: variant γ4.3 (AAV2 capsid with N312K, N449D, N551S, I698V) (AAV2 (adeno-associated virus type 2)) (UniProt P03135)
[7] = target: wild-type AAV1 capsid (recombinant AAV-GFP vector) (AAV1 (adeno-associated virus type 1))
[8] = target: wild-type AAV2 capsid (recombinant AAV-GFP vector) (AAV2 (adeno-associated virus type 2)) (UniProt P03135)
[9] = target: wild-type AAV8 capsid (recombinant AAV-GFP vector) (AAV8 (adeno-associated virus type 8))

Which Fold Resistance Relative to AAV2 [1] does the source give for “human IVIG (Gamimune N, 10% Human IVIG, Bayer)” here?
The Fold Resistance Relative to AAV2 was 7.52 fold.

What about the Neutralizing IVIG concentration mg/ml (reduces gene delivery efficiency to 50%) [1] of the same substance?
Its Neutralizing IVIG concentration mg/ml (reduces gene delivery efficiency to 50%) is 0.113 mg/mL.

And the Fold Resistance Relative to AAV2 [2]?
Its Fold Resistance Relative to AAV2 is 3.41 fold.

What about the Neutralizing IVIG concentration mg/ml (reduces gene delivery efficiency to 50%) [2] of the same substance?
The Neutralizing IVIG concentration mg/ml (reduces gene delivery efficiency to 50%) was 0.051 mg/mL.

What about the Fold Resistance Relative to AAV2 [3] of the same substance?
Its Fold Resistance Relative to AAV2 is 4.39 fold.

And the Neutralizing IVIG concentration mg/ml (reduces gene delivery efficiency to 50%) [3]?
The Neutralizing IVIG concentration mg/ml (reduces gene delivery efficiency to 50%) was 0.066 mg/mL.

And the Fold Resistance Relative to AAV2 [4]?
The Fold Resistance Relative to AAV2 was 4.94 fold.

What about the Neutralizing IVIG concentration mg/ml (reduces gene delivery efficiency to 50%) [4] of the same substance?
Its Neutralizing IVIG concentration mg/ml (reduces gene delivery efficiency to 50%) is 0.074 mg/mL.

What about the enhanced resistance to IVIg compared to wild-type AAV2 [5] of the same substance?
Its enhanced resistance to IVIg compared to wild-type AAV2 is 1.23 fold.

What about the enhanced resistance to IVIg compared to wild-type AAV2 [6] of the same substance?
The enhanced resistance to IVIg compared to wild-type AAV2 was 3.1 fold.

What about the Fold Resistance Relative to AAV2 [7] of the same substance?
Its Fold Resistance Relative to AAV2 is 1.76 fold.

And the Neutralizing IVIG concentration mg/ml (reduces gene delivery efficiency to 50%) [7]?
The Neutralizing IVIG concentration mg/ml (reduces gene delivery efficiency to 50%) was 0.026 mg/mL.

What about the Fold Resistance Relative to AAV2 [8] of the same substance?
The Fold Resistance Relative to AAV2 was 1 fold.

What about the Neutralizing IVIG concentration mg/ml (reduces gene delivery efficiency to 50%) [8] of the same substance?
The Neutralizing IVIG concentration mg/ml (reduces gene delivery efficiency to 50%) was 0.015 mg/mL.

And the Fold Resistance Relative to AAV2 [9]?
Its Fold Resistance Relative to AAV2 is 6.11 fold.

And the Neutralizing IVIG concentration mg/ml (reduces gene delivery efficiency to 50%) [9]?
The Neutralizing IVIG concentration mg/ml (reduces gene delivery efficiency to 50%) was 0.092 mg/mL.
